{"source": "patent EP4170021A1", "binders": {"B1": {"name": "mouse anti-MCR-1 protein antibody 1BD9 (antibody, V domains shown)", "VH": "VKLQQSGPELVKPGASVKVSCKASGYAFTSCNMYWVKQSHGKSLEWIGYFDPYSGDAYYNQKFKDKATLTVDKSSSTAYMHLNSLTSEDSAVYYCASWLQLYYALDYWGQGTSVTVSA", "VL": "AIQMTQTPSSLSASLGDRVTISCRASQDISNYLNWYQQKPDGTVKLLIYYTSRLHSGVPSRFSGSGSGTDYSLNISNLEQEDFATYFCQQGDMIPDTFGGGTKLEIKR"}, "B2": {"name": "mouse anti-MCR-1 protein antibody 1BH8 (antibody, V domains shown)", "VH": "VQLQQSGPELVKPGASVKMSCRASGYTFTNYIMHWVKQKPGQGLDWIGYINPYNDGTKYNEKFKGKATLSSDKSSGTAYMDLSSLTSEDSAVYYCARGPYGNYAMDYWGQGTSVTVSS", "VL": "DVLMTQTPLSLPVSLGDQASISCRSSQNIVCSYGNPCLEWYLQKPGQSPKLLIYKVSNRFSGVPDRFSGSGSGTDFTLKISRVEAEDLGVYYCFQGSHVPWTFGGGTELEIKR"}}, "target": "MCR-1 protein", "test": "indirect ELISA, plate coated with MCR-1 protein at 0.2 ug/mL, purified antibody serially diluted", "conditions": "scale: dilution factor", "data": [{"binder": "B1", "values": [{"measurement": "titer", "result": "> 1.28e+06"}]}, {"binder": "B2", "values": [{"measurement": "titer", "result": "> 1.28e+06"}]}]}
